# Data: article PMC3749868, “Proteolytic processing of QSOX1A ensures efficient secretion of a potent disulfide catalyst” (Biochemical Journal, 2013)
# B1: QSOX1A–V5 (quiescin sulfhydryl oxidase 1, splice variant A, V5-tagged, uncleaved) (enzyme, human, UniProt O00391 30-747, looked up)
# chain: APRSALYSPSDPLTLLQADTVRGAVLGSRSAWAVEFFASWCGHCIAFAPTWKALAEDVKAWRPALYLAALDCAEETNSAVCRDFNIPGFPTVRFFKAFTKNGSGAVFPVAGADVQTLRERLIDALESHHDTWPPACPPLEPAKLEEIDGFFARNNEEYLALIFEKGGSYLGREVALDLSQHKGVAVRRVLNTEANVVRKFGVTDFPSCYLLFRNGSVSRVPVLMESRSFYTAYLQRLSGLTREAAQTTVAPTTANKIAPTVWKLADRSKIYMADLESALHYILRIEVGRFPVLEGQRLVALKKFVAVLAKYFPGRPLVQNFLHSVNEWLKRQKRNKIPYSFFKTALDDRKEGAVLAKKVNWIGCQGSEPHFRGFPCSLWVLFHFLTVQAARQNVDHSQEAAKAKEVLPAIRGYVHYFFGCRDCASHFEQMAAASMHRVGSPNAAVLWLWSSHNRVNARLAGAPSEDPQFPKVQWPPRELCSACHNERLDVPVWDVEATLNFLKAHFSPSNIILDFPAAGSAARRDVQNVAAAPELAMGALELESRNSTLDPGKPEMMKSPTNTTPHVPAEGPEASRPPKLHPGLRAAPGQEPPEHMAELQRNEQEQPLGQWHLSKRDTGAALLAESRAEKNRLWGPLEVRRVGRSSKQLVDIPEGQLEARAGRGRGQWLQVLGGGFSYLDISLCVGLYSLSFMGLLAMYTYFQAKIRALKGHAGHPAA
# notes: human QSOX1A, the long splice variant of QSOX1 with 143 additional C-terminal amino acids including the single-pass TM domain; uncleaved (full-length) form; Membrane-integrated, V5 on the cytosolic side; also called V5-tagged QSOX1A; uncleaved QSOX1A–V5; source: HT1080, stably overexpressing (cross-linking in cells, SEC of lysate); HT1080, transiently co-transfected, in lysate (co-assembly); not …
# Key:
# [1] = target: cleaved QSOX1A (soluble product of the proteolytic processing of QSOX1A–V5, without the TM domain and the V5 tag) (human); test: SEC; protein secreted for 3 h into serum-free medium, concentrated and buffer-exchanged (gel-filtration buffer with 0.03% Triton X-100 by the legend, 0.02% DDM by the methods), S200 PC3.2/30 column; fractions analysed by Western blot
# [2] = target: cleaved QSOX1A (soluble product of the proteolytic processing of QSOX1A–V5, without the TM domain and the V5 tag) (human); test: SEC; cell lysate (2% DDM) of the QSOX1A–V5 cell line, Sephadex 200 PC3.2/30 column, 50 mM Tris/HCl pH 7.5, 150 mM NaCl, 1 mM EDTA, 0.02% DDM; fractions analysed by Western blot (anti-V5, anti-QSOX1A)
# [3] = target: QSOX1B–V5 (quiescin sulfhydryl oxidase 1, splice variant B, V5-tagged) (human) (UniProt O00391); test: SEC; protein secreted for 3 h into serum-free medium, concentrated and buffer-exchanged (gel-filtration buffer with 0.03% Triton X-100 by the legend, 0.02% DDM by the methods), S200 PC3.2/30 column; fractions analysed by Western blot
# [4] = target: the molecule itself; test: cross-linking; thiol-specific cross-linker BMH, 0.1 mM, added to intact cells in KHM buffer, 30 min on ice, stopped with 20 mM DTT; lysates analysed by Western blot or by immunoisolation (anti-V5–agarose, then anti-QSOX1A) of radiolabelled proteins; MS of the cross-linked product (results not shown)
molecule,measurement,setting,value
"cleaved QSOX1A (soluble product of the proteolytic processing of QSOX1A–V5, without the TM domain and the V5 tag) (domain or fragment)",stoichiometry N,[1],2
same,stoichiometry N,[2],2
"QSOX1B–V5 (quiescin sulfhydryl oxidase 1, splice variant B, V5-tagged) (from UniProt O00391-2 30-604) (enzyme)",stoichiometry N,[3],2
B1,stoichiometry N,[4],2
